Results reported in patent publication US20230227508A1, “SPLIT INTEIN-BASED SELECTION FOR PEPTIDE BINDERS” (priority 2020, published 2023).

Tested on: Bacillus subtilis PY79
Experiment: Haloduracin agar spot assay on indicator strain
Format: cell-based
Conditions: 5 μL of cleaved, desalted core peptide in 1:1 methanol:water on LB-agar
Protocol: To assay for antimicrobial activity, the cleaved and desalted core peptides were resuspended in 50 μL 1:1 methanol:water. Bacillus subtilis PY79 was used as indicator strain and was spread on a LB-agar surface, on which 5 μL of either or both haloduracins or a solvent control was added.

| Molecule | antibacterial activity, growth inhibition on agar |
| --- | --- |
| haloduracin A1 (peptide) MTNLLKEWKMPLERTHNNSNPAGDIFQELEDQDILAGVNGAENLYFQGCAWYNISCRLGNKGAYCTLTVECMPSCN | minimal antibacterial activity |
| haloduracin A2 (peptide) MVNSKDLRNPEFRKAQGLQFVDEVNEKELSSLAGSENLYFQGTTWPCATVGVSVALCPTTKCTSQC | minimal antibacterial activity |
